Literature values as cited in PMC3763834.
“And” between values parts separate entries of the source, which are not always exact repeats. Equal entries are not always repeated.

Target: PKA catalytic subunit (UniProt P17612)

In the case of PKA RII subunit (from UniProt P13861), the Kd is listed as 1 nM and 0.1 nM.
